According to paper PMC4585563, “Small angle X-ray scattering studies of CTNNBL1 dimerization and CTNNBL1/CDC5L complex” (Scientific Reports, 2015):

B1: CDC5L^197-285 (domain or fragment, human, UniProt Q99459 197-285, looked up)
chain: EIQKKRKRKRGVDYNAEIPFEKKPALGFYDTSEENYQALDADFRKLRQQDLDGELRSEKEGRDRKKDKQHLKRKKESDLPSAILQTSGV
notes: CDC5L of the human hPrp19/CDC5L complex, residues 197-285; holds NLS3 (residues 200-206: KKRKRKR); cloned into pPosKJ; pPosKJ adds 6xHis and VHb, both removed only by TEV protease; the His-tagged proteins were made without TEV, so VHb should still be on the chain in the pull-down; also called 6xHis-tagged CDC5L 197-285; source: E. coli, purified as CTNNBL1 with 300 mM NaCl in the buffers, without …
B2: CDC5L^141-285 (domain or fragment, human, UniProt Q99459 141-285, looked up)
chain: PIDMDEDELEMLSEARARLANTQGKKAKRKAREKQLEEARRLAALQKRRELRAAGIEIQKKRKRKRGVDYNAEIPFEKKPALGFYDTSEENYQALDADFRKLRQQDLDGELRSEKEGRDRKKDKQHLKRKKESDLPSAILQTSGV
notes: CDC5L of the human hPrp19/CDC5L complex, residues 141-285; holds NLS3 (residues 200-206: KKRKRKR); cloned into pET-30a(+); also called 6xHis-tagged CDC5L 141-285; source: E. coli, purified as CTNNBL1 with 300 mM NaCl in the buffers, without TEV protease
B3: CDC5L^141-377 (domain or fragment, human, UniProt Q99459 141-377, looked up)
chain: PIDMDEDELEMLSEARARLANTQGKKAKRKAREKQLEEARRLAALQKRRELRAAGIEIQKKRKRKRGVDYNAEIPFEKKPALGFYDTSEENYQALDADFRKLRQQDLDGELRSEKEGRDRKKDKQHLKRKKESDLPSAILQTSGVSEFTKKRSKLVLPAPQISDAELQEVVKVGQASEIARQTAEESGITNSASSTLLSEYNVTNNSVALRTPRTPASQDRILQEAQNLMALTNVDT
notes: CDC5L of the human hPrp19/CDC5L complex, residues 141-377 of the N-terminal domain; holds NLS3 (residues 200-206: KKRKRKR); cloned into pET-30a(+); also called 6xHis-tagged CDC5L 141-377; source: E. coli, purified as CTNNBL1 with 300 mM NaCl in the buffers, without TEV protease
B4: CTNNBL1 (residues 77-563), wild type (domain or fragment, human, UniProt Q8WYA6 77-563, looked up)
chain: LDESSVKKMILTFEKRSYKNQELRIKFPDNPEKFMESELDLNDIIQEMHVVATMPDLYHLLVELNAVQSLLGLLGHDNTDVSIAVVDLLQELTDIDTLHESEEGAEVLIDALVDGQVVALLVQNLERLDESVKEEADGVHNTLAIVENMAEFRPEMCTEGAQQGLLQWLLKRLKAKMPFDANKLYCSEVLAILLQDNDENRELLGELDGIDVLLQQLSVFKRHNPSTAEEQEMMENLFDSLCSCLMLSSNRERFLKGEGLQLMNLMLREKKISRSSALKVLDHAMIGPEGTDNCHKFVDILGLRTIFPLFMKSPRKIKKVGTTEKEHEEHVCSILASLLRNLRGQQRTRLLNKFTENDSEKVDRLMELHFKYLGAMQVADKKIEGEKHDMVRRGEIIDNDTEEEFYLRRLDAGLFVLQHICYIMAEICNANVPQIRQRVHQILNMRGSSIKIVRHIIKEYAENIGDGRSPEFRENEQKRILGLLENF
notes: human CTNNBL1, residues 77-563, amplified from a human cDNA library; Dimer by SAXS at 0-200 mM NaCl and by SEC at 150 mM NaCl; monomer at 300-400 mM NaCl; also called native CTNNBL1; wild-type CTNNBL1; source: E. coli BL21(DE3)-T1R, purified (Ni-NTA, TEV protease, Ni-NTA, Superdex200); not shown: 6xHis, N-terminal, cleaved; VHb (bacterial hemoglobin), N-terminal, cleaved

Tests used:
[1] = target: B4; assay: pull-down; 6xHis-tagged CDC5L truncations mixed with untagged CTNNBL1 in 50 mM Tris-HCl pH 8.0, 300 mM NaCl, dialysed against 50 mM Tris-HCl without NaCl at 4 °C overnight, loaded on Ni-NTA resin, washed with 10 mM imidazole, eluted with 300 mM imidazole, SDS-PAGE; conditions: both partners purified
[2] = target: the molecule itself; assay: SEC; CDC5L truncations alone; data not shown
[3] = target: the molecule itself; assay: SAXS; CTNNBL1 alone in solution, 200 mM NaCl, 4 °C, 1.0-5.0 mg/ml; oligomeric state from molecular mass (absolute I(0)), Guinier and p(r) analysis
[4] = target: the molecule itself; assay: SAXS; CTNNBL1 alone in solution, 0 mM NaCl, 4 °C, 1.0-5.0 mg/ml; oligomeric state from molecular mass (absolute I(0)), Guinier and p(r) analysis
[5] = target: the molecule itself; assay: SAXS; CTNNBL1 alone in solution, 100 mM NaCl, 4 °C, 1.0-5.0 mg/ml; oligomeric state from molecular mass (absolute I(0)), Guinier and p(r) analysis

Row | Binder | binding result [1] | stoichiometry N [2] | stoichiometry N [3] | stoichiometry N [4] | stoichiometry N [5]
1 | B1 | binds |  |  |  | 
2 | B2 | binds | 2 |  |  | 
3 | B3 | binds | 2 |  |  | 
4 | B4 |  |  | 2 | 2 | 2
